Experimental data taken from the RNAGym collection of RNA variant scans (doi:10.1101/gr.219683.116).

B1: mRNA-splicing (parent)
chain: AGUUGCUGCUGGGAGCUCCAGCACAGUGAAAUGGACAGAAGGGCAGAGCAA

Variants of: B1
Experiment: exon inclusion enrichment index; higher = more inclusion; WT1 exon 5 minigene, HEK293

Variant	exon inclusion enrichment index
G5C C6U G8C C9U U10C C19G A20C	1.8
G5C C6U G8C C9U U10C C19G A20U	1.72
G5C C6U G8C C9U U10C C19G A20G	1.04
G5C C6U G8C C9U U10C A40C	2.94
G5C C6U G8C C9U U10C A40U	1.67
G5C C6U G8C C9U U10C A40G	1.61
G5C C6U G8C C9U U10C C22U A23U	1.09
G5C C6U G8C C9U U10C C22U A23G	2.04
G5C C6U G8C C9U U10C C22U A23C	1.22
G5C C6U G8C C9U U10C G12C	1.51
G5C C6U G8C C9U U10C G12A	0.889
G5C C6U G8C C9U U10C G12U	1.11
G5C C6U G8C C9U U10C C22G A23C	0.747
G5C C6U G8C C9U U10C C22G A23U	0.248
G5C C6U G8C C9U U10C C22G A23G	0.846
G5C C6U G8C C9U U10C C16A U17C	1.6
G5C C6U G8C C9U U10C C16A U17A	1.38
G5C C6U G8C C9U U10C C16A U17G	1.15
G5C C6U G8C C9U U10C C18G	2.21
G5C C6U G8C C9U U10C C18A	1.39
G5C C6U G8C C9U U10C C18U	1.62
G5C C6U G8C C9U U10C C36A	1.44
G5C C6U G8C C9U U10C C36G	1.32
G5C C6U G8C C9U U10C C36U	0.515

Variant	exon inclusion enrichment index
G5C C6U G8C C9U U10C C16U U17C	1.08
G5C C6U G8C C9U U10C C16U U17G	0.905
G5C C6U G8C C9U U10C C16U U17A	1.65
G5C C6U G8C C9U U10C A47U G48A	1.58
G5C C6U G8C C9U U10C A47U G48C	1.37
G5C C6U G8C C9U U10C A47U G48U	1.45
G5C C6U G8C C9U U10C C44U	0.527
G5C C6U G8C C9U U10C C44G	2.79
G5C C6U G8C C9U U10C C44A	3.29
G5C C6U G8C C9U U10C C19A A20G	0.213
G5C C6U G8C C9U U10C C19A A20C	0.813
G5C C6U G8C C9U U10C C19A A20U	0.553
G5C C6U G8C C9U U10C G11A	0.742
G5C C6U G8C C9U U10C G11C	2.41
G5C C6U G8C C9U U10C G11U	1
G5C C6U G8C C9U U10C C22A A23C	2.99
G5C C6U G8C C9U U10C C22A A23U	1.31
G5C C6U G8C C9U U10C C22A A23G	2.07
G5C C6U G8C C9U U10C G11U G12U	0.188
G5C C6U G8C C9U U10C G11U G12C	0.558
G5C C6U G8C C9U U10C G11U G12A	0.0218
G5C C6U G8C C9U U10C C24U A25U	1.95
G5C C6U G8C C9U U10C C24U A25C	3.44
G5C C6U G8C C9U U10C C24U A25G	3.05

Variant	exon inclusion enrichment index
G5C C6U G8C C9U U10C G12A G13C	0.692
G5C C6U G8C C9U U10C G12A G13U	0.128
G5C C6U G8C C9U U10C G12A G13A	0.681
G5C C6U G8C C9U U10C A40U G41U	0.94
G5C C6U G8C C9U U10C A40U G41A	0.0602
G5C C6U G8C C9U U10C A40U G41C	2.71
G5C C6U G8C C9U U10C G13U A14G	0.52
G5C C6U G8C C9U U10C G13U A14U	0.592
G5C C6U G8C C9U U10C G13U A14C	0.936
G5C C6U G8C C9U U10C A39U A40U	0.67
G5C C6U G8C C9U U10C A39U A40C	2.16
G5C C6U G8C C9U U10C A39U A40G	0.572
G5C C6U G8C C9U U10C C18U C19U	0.0402
G5C C6U G8C C9U U10C C18U C19G	0.675
G5C C6U G8C C9U U10C C18U C19A	0.179
G5C C6U G8C C9U U10C A45G G46U	1.68
G5C C6U G8C C9U U10C A45G G46C	2.3
G5C C6U G8C C9U U10C A45G G46A	3.98
G5C C6U G8C C9U U10C A45C	2.06
G5C C6U G8C C9U U10C A45G	3.56
G5C C6U G8C C9U U10C A45U	2.45
G5C C6U G8C C9U U10C C44U A45G	1.03
G5C C6U G8C C9U U10C C44U A45C	2.63
G5C C6U G8C C9U U10C C44U A45U	1.28

Variant	exon inclusion enrichment index
G5C C6U G8C C9U U10C C36A A37G	0.805
G5C C6U G8C C9U U10C C36A A37C	2.33
G5C C6U G8C C9U U10C C36A A37U	0.939
G5C C6U G8C C9U U10C C18A C19A	0.438
G5C C6U G8C C9U U10C C18A C19G	0.289
G5C C6U G8C C9U U10C C18A C19U	0.0905
G5C C6U G8C C9U U10C G15C	2.54
G5C C6U G8C C9U U10C G15A	0.641
G5C C6U G8C C9U U10C A39G A40U	0.232
G5C C6U G8C C9U U10C A39G A40G	0.186
G5C C6U G8C C9U U10C C24U	0.544
G5C C6U G8C C9U U10C C24A	1.72
G5C C6U G8C C9U U10C C24G	2.4
G5C C6U G8C C9U U10C G13A A14G	2.03
G5C C6U G8C C9U U10C G13A A14U	2.38
G5C C6U G8C C9U U10C G13A A14C	2.59
G5C C6U G8C C9U U10C C16G U17G	0.254
G5C C6U G8C C9U U10C C16G U17C	1.12
G5C C6U G8C C9U U10C C16G U17A	2.4
G5C C6U G8C C9U U10C A47C G48U	1.77
G5C C6U G8C C9U U10C A47C G48A	1.12
G5C C6U G8C C9U U10C A47C G48C	1.78
G5C C6U G8C C9U U10C C24G A25U	2.32
G5C C6U G8C C9U U10C C24G A25C	3.27

Variant	exon inclusion enrichment index
G5C C6U G8C C9U U10C C24G A25G	0.981
G5C C6U G8C C9U U10C G15A C16A	1.24
G5C C6U G8C C9U U10C G15A C16G	1.28
G5C C6U G8C C9U U10C G15A C16U	1.27
G5C C6U G8C C9U U10C A40G G41C	3.24
G5C C6U G8C C9U U10C A40G G41U	1.75
G5C C6U G8C C9U U10C A40G G41A	0.782
G5C C6U G8C C9U U10C C19U	0.105
G5C C6U G8C C9U U10C C19A	0.881
G5C C6U G8C C9U U10C C19G	1.61
G5C C6U G8C C9U U10C A47G G48A	1.24
G5C C6U G8C C9U U10C A47G G48U	0.205
G5C C6U G8C C9U U10C A47G G48C	0.706
G5C C6U G8C C9U U10C A45C G46U	0.726
G5C C6U G8C C9U U10C A45C G46C	1.22
G5C C6U G8C C9U U10C A45C G46A	1.12
G5C C6U G8C C9U U10C G11A G12A	0.685
G5C C6U G8C C9U U10C G11A G12U	0.314
G5C C6U G8C C9U U10C G11A G12C	0.41
G5C C6U G8C C9U U10C G13C A14U	1.35
G5C C6U G8C C9U U10C G13C A14G	1.94
G5C C6U G8C C9U U10C G13C A14C	1.15
G5C C6U G8C C9U U10C A39U	0.0783
G5C C6U G8C C9U U10C A45U G46C	1.3

Variant	exon inclusion enrichment index
G5C C6U G8C C9U U10C A45U G46A	1.39
G5C C6U G8C C9U U10C A45U G46U	0.648
G5C C6U G8C C9U U10C C19U A20G	0.343
G5C C6U G8C C9U U10C C19U A20U	0.25
G5C C6U G8C C9U U10C C19U A20C	0.957
G5C C6U G8C C9U U10C C36U A37G	1.74
G5C C6U G8C C9U U10C C36U A37U	1.12
G5C C6U G8C C9U U10C C36U A37C	1.55
G5C C6U G8C C9U U10C G11C G12U	0.675
G5C C6U G8C C9U U10C G11C G12A	0.634
G5C C6U G8C C9U U10C G11C G12C	0.631
G5C C6U G8C C9U U10C A40C G41C	2.97
G5C C6U G8C C9U U10C A40C G41A	0.768
G5C C6U G8C C9U U10C A40C G41U	0.895
G5C C6U G8C C9U U10C C22U	1.44
G5C C6U G8C C9U U10C C22A	1.57
G5C C6U G8C C9U U10C C22G	2.51
G5C C6U G8C C9U U10C C18G C19A	2.82
G5C C6U G8C C9U U10C C18G C19U	0.674
G5C C6U G8C C9U U10C C18G C19G	2.78
G5C C6U G8C C9U U10C C16A	2.53
G5C C6U G8C C9U U10C C16G	1.02
G5C C6U G8C C9U U10C C16U	2.36
G5C C6U G8C C9U U10C C44A A45U	4.04

Variant	exon inclusion enrichment index
G5C C6U G8C C9U U10C C44A A45C	3.61
G5C C6U G8C C9U U10C C44A A45G	2.98
G5C C6U G8C C9U U10C C36G A37G	0.3
G5C C6U G8C C9U U10C C36G A37C	0.671
G5C C6U G8C C9U U10C C36G A37U	0.948
G5C C6U G8C C9U U10C C24A A25G	2.06
G5C C6U G8C C9U U10C C24A A25U	1.94
G5C C6U G8C C9U U10C C24A A25C	3.4
G5C C6U G8C C9U U10C G13U	0.0883
G5C C6U G8C C9U U10C G13C	0.822
G5C C6U G8C C9U U10C G13A	2.18
G5C C6U G8C C9U U10C G12C G13U	0.036
G5C C6U G8C C9U U10C G12C G13A	0.931
G5C C6U G8C C9U U10C G12C G13C	0.312
G5C C6U G8C C9U U10C C44G A45G	0.398
G5C C6U G8C C9U U10C C44G A45C	3.14
G5C C6U G8C C9U U10C C44G A45U	1.26
G5C C6U G8C C9U U10C A47U	1.87
G5C C6U G8C C9U U10C A47G	0.327
G5C C6U G8C C9U U10C A47C	2.38
G5C C6U G8C C9U U10C G12U G13A	0.153
G5C C6U G8C C9U U10C G12U G13C	0.698
G5C C6U G8C C9U U10C G12U G13U	0.0261
